Test results as given in PMC3445780.

Target: EphB4 receptor (UniProt P54760)
Test: SPR

Sequence of UniProt P54760 (P54760 16-987): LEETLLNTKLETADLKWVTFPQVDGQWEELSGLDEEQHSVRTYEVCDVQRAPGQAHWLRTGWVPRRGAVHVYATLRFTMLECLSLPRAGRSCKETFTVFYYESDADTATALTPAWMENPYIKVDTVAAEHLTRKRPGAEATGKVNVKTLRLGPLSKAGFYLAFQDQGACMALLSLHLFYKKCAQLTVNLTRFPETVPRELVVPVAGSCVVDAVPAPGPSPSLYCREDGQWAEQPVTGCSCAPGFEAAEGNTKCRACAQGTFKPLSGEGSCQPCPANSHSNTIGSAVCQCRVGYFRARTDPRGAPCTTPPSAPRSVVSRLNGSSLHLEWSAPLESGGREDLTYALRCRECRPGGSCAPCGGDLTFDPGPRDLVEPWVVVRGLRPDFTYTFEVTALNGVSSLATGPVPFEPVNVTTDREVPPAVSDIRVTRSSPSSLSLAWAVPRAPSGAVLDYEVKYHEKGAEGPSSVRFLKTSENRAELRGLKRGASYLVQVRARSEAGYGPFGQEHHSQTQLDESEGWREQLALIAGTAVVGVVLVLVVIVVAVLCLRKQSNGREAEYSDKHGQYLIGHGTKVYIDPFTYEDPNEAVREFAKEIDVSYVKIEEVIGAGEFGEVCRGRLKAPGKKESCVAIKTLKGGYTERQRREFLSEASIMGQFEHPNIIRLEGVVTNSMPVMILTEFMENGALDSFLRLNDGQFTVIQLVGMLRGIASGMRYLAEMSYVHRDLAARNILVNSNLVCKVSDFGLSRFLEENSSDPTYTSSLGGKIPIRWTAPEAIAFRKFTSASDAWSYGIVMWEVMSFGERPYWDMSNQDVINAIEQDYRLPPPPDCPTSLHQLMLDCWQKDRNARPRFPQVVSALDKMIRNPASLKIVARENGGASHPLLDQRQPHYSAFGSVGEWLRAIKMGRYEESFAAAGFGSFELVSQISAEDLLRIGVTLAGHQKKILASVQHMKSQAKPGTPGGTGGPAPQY

cyclic peptide c(TNYL-RAW)
Kd: 4.4 nM
